T1: MukB (E. coli SMC protein of MukBEF) (E. coli, UniProt P22523 1-1486)
T1 sequence: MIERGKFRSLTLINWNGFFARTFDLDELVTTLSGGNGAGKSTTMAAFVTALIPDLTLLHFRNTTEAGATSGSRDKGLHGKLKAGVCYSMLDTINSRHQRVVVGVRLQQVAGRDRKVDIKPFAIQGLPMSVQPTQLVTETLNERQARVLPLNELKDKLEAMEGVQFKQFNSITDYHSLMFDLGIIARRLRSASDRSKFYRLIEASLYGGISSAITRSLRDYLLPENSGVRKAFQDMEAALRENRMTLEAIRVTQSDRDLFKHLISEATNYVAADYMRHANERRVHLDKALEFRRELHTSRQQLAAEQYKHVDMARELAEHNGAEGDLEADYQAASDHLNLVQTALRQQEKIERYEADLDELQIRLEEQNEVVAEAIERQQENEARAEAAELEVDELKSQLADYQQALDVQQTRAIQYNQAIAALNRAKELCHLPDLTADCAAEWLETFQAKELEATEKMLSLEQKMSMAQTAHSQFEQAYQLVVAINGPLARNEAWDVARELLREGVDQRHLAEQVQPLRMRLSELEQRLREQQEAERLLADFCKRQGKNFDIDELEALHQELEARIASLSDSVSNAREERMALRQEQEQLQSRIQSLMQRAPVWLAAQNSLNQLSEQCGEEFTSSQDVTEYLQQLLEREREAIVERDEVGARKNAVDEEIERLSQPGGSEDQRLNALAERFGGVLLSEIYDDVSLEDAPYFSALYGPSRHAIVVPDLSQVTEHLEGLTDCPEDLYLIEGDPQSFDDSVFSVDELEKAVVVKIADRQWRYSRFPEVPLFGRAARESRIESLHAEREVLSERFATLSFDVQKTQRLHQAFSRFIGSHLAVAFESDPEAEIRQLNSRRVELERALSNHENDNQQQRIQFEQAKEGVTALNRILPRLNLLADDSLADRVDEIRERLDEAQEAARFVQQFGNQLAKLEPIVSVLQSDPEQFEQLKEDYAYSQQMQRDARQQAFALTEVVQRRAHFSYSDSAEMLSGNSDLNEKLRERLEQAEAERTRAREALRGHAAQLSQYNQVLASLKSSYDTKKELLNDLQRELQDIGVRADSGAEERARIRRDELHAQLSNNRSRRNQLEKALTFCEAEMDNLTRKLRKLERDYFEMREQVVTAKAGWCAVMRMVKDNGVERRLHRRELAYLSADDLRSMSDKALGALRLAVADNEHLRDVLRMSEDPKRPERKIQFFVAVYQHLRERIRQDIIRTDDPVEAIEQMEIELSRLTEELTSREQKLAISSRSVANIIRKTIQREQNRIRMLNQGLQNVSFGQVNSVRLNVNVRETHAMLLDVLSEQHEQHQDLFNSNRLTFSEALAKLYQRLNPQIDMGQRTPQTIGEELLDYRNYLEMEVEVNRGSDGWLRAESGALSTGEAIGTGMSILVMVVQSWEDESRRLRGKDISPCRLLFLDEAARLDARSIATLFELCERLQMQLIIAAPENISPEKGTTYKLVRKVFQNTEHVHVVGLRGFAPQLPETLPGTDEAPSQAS

B1: MukF (E. coli kleisin of MukBEF) (natural protein)
chain: MSEFSQTVPELVAWARKNDFSISLPVDRLSFLLAVATLNGERLDGEMSEGELVDAFRHVSDAFEQTSETIGVRANNAINDMVRQRLLNRFTSEQAEGNAIYRLTPLGIGITDYYIRQREFSTLRLSMQLSIVAGELKRAADAAEEGGDEFHWHRNVYAPLKYSVAEIFDSIDLTQRLMDEQQQQVKDDIAQLLNKDWRAAISSCELLLSETSGTLRELQDTLEAAGDKLQANLLRIQDATMTHDDLHFVDRLVFDLQSKLDRIISWGQQSIDLWIGYDRHVHKFIRTAIDMDKNRVFAQRLRQSVQTYFDEPWALTYANADRLLDMRDEEMALRDEEVTGELPEDLEYEEFNEIREQLAAIIEEQLAVYKTRQVPLDLGLVVREYLSQYPRARHFDVARIVIDQAVRLGVAQADFTGLPAKWQPINDYGAKVQAHVIDKY
B2: MukEF complex (E. coli) (complex)
chain 1: MSSTNIEQVMPVKLAQALANPLFPALDSALRSGRHIGLDELDNHAFLMDFQEYLEEFYARYNVELIRAPEGFFYLRPRSTTLIPRSVLSELDMMVGKILCYLYLSPERLANEGIFTQQELYDELLTLADEAKLLKLVNNRSTGSDVDRQKLQEKVRSSLNRLRRLGMVWFMGHDSSKFRITESVFRFGADVRAGDDPREAQRRLIRDGEAMPIENHLQLNDETEENQPDSGEEE
chain 2: B1 chain
B3: Scc2 residues 151-1493 (S. cerevisiae cohesin loader), recombinant (domain or fragment)
chain: SNAGNLSFNDNSSNKKTKTSTGVTMTQANLAEQYLNDLKNILDIVGFDQNSAEIGNIEYWLQLPNKKFVLTTNCLTKLQMTIKNITDNPQLSNSIEITWLLRLLDVMVCNIKFSKSSLKMGLDDSMLRYIALLSTIVLFNIFLLGKNDSNLHRESYIMEPVNFLSDLIESLKILTIEYGSLKIEFDTFQEALELLPKYIRNGPFLDDNVTAKLVYIFSDLLMNNDIEATTNIQFQSFWDNVKRISSDILVSLFGSFDQQRGFIIEELLSHIEKLPTKRIQKKLRKVGNQNIYITDFTFTLMSMLENINCYSFCNQMKDIAPENIDLLKNEYKKQEEFLFNIVEHINDTILERFFKNPSALRYVIDNFVQDLLLLISSPQWPVTEKILSSLLKRLLSVYSPSMQVSANIETICLQLIGNIGSTIFDIKCSTRDHEDNNLIKMINYPETLPHFFKSFEECIAYNETIKCRRSATRFLWNLRLGTILILEEYTKDAKEQIITVDNELKKILEQIKDGGLGPELENREADFSTIKLDYFSILHAFELLNLYDPYLKLILSLLAKDKIKLRSTAIKCLSMLASKDKVILSNPMVKETIHRRLNDSSASVKDAILDLVSINSSYFEFYQQINNNYNDDSIMVRKHVLRINEKMYDETNDIVTKVYVIARILMKIEDEEDNIIDMARLILLNRWILKVHEVLDQPEKLKEISSSVLLVMSRVAIMNEKCSQLFDLFLNFYLLNKEAHSKEAYDKITHVLTILTDFLVQKIVELNSDDTNEKNSIVDKQNFLNLLAKFADSTVSFLTKDHITALYPYMVSDEKSDFHYYILQVFRCTFEKLANFKQKFLYDLETTLLSRLPKMNVREIDEAMPLIWSVATHRHDTARVAKACSSCLSHLHPYINKANNEEAAIVVDGKLQRLIYLSTGFARFCFPKPSNDKIAFLQEGETLYEHITKCLLVLSKDKITHVIRRVAVKNLTKLCGNHPKLFNSRHVLHLLDKEFQSDQLDIKLVILESLYDLFLLEERKSVRNTGVNSTLSSNSILKKKLLKTNRVEFANDGVCSALATRFLDNILQLCLLRDLKNSLVAIRLLKLILKFGYTNPSHSIPTVIALFASTSQYIRHVAYELLEDLFEKYETLVFSSLSRGVTKAIHYSIHTDEKYYYKHDHFLSLLEKLCGTGKKNGPKFFKVLKRIMQSYLDDITDLTSTNSSVQKSIFVLCTNISNITFVSQYDLVSLLKTIDLTTDRLKEVIMDEIGDNVSSLSVSEEKLSGIILIQLSLQDLGTYLLHLYGLRDDVLLLDIVEESELKNKQLPAKKPDISKFSAQLENIEQYSSNGKLLTYFRKHVKDT
B4: Scc3 (S. cerevisiae cohesin HAWK protein), recombinant (natural protein)
chain: MTAVRRSTRIRTKSQVIEEDYDDEQNTSAQHVESDKITAKTQHEEEEEQDTGESEESSSEDDYEDQDDDDYVDTATAKRKSRKRKPKSASNTSSKRQKKKPTSAQKSAVSHAPAYHRSKKDQDQYLEIAKDFQPTELFDILSTSEDVSIEELLREWLETYSENRDKFLQEFINLLLNCCGSVARVEDHDVHSNESSNETIGEIQLLFQRQKLHEFYLLISKENKKRKNFKMGPLYQNFAEFMTKLLEVANDLQLLYVESDEDDTQIVTGNLVLDLLTWLSSFSVCKIRCFRYISTLTLYLFQDYLTQQAVNLEKNYLAKLSKQLSLEEKKKRPNNKTLEKLESTIAETQGSKVVIDSIIDNIVKLCFVHRYKDVSDLIRSESMLHLSIWIKNYPEYFLKVTFLKYFGWLLSDNSVSVRLQVTKILPHLIIQNHNSKSTDNSAIRQVFERFKTKILEVAIRDVNLDVRIHSIQVLTEASSLGYLDDSEILIISSLMFDEEFDPFKTSSFNKRSKFLSTVAKFLARVIKEKFDEFIKTHEDLPKEVDGLEVGPVVQVGIFIKILNDSLIYHLKDCAEVDSRTKIRMLTQAAEFLSPYISTHLKTICNLLISDTESNELIQKLQNSANNNSDDEDVDDEELDITPLFPIDRNSTILYLNVFHGLCAGANNPKIQTKDSVKEIVLPLFYDLLNAASIESADILCPLLESFITFSLDDWISIGYETELKKITDKTIKAFMDSTIGNSKVDMKYDIFAKFIHHIHHFEKKELQEKFLNQIATLKIHLKKFLQEKMDPNNSRDDYKDLTCSLYELYINKLTILGRDYPIEVDEELLQLFLNNFVSRIPIMFQDFDDSTAQEINFKMLVLLATWNLEKWREIIEKVRDYENSISKDLRSVWKPIAAIIGRLNTLVISLAATNETFENINSLFYLKWSACTSLMDIIVAIKIFELKLPADATTWRYSMSEQFPFYLHDNASKVLLKIFLYLESLFAKQVDVQLERVADEDANLNDLPETGFFENIETEFLLFTVKLKGLMKLNILDERFASRVALNKEKLGPLFKKIVDDTIMENPEPNKKNIQKAKSNQTQREKAPLQPNSERETDHANTENNDPDIPMTIDLEPIEESSQNNSELAPIEEHPTVVDAIDNSDEITQD
B5: MukE (E. coli KITE protein of MukBEF), untagged, from the co-expressed holocomplex (natural protein)
chain: B2 chain 1
B6: MukE (E. coli) made as His6-SUMO-MukE for the MukEF preparation (natural protein)
chain: B2 chain 1

Key:
[1] = molecular target: T1, MukB (E. coli SMC protein of MukBEF); assay: SEC
[2] = molecular target: Smc1-Smc3-Scc1 trimer (S. cerevisiae cohesin) (S. cerevisiae, UniProt P32908;P47037;Q12158); assay: SEC
[3] = molecular target: B1; assay: cross-linking
[4] = molecular target: B1; assay: SEC

Chain of Smc1-Smc3-Scc1 trimer (S. cerevisiae cohesin) (P32908 whole entry, chain 1 of 3): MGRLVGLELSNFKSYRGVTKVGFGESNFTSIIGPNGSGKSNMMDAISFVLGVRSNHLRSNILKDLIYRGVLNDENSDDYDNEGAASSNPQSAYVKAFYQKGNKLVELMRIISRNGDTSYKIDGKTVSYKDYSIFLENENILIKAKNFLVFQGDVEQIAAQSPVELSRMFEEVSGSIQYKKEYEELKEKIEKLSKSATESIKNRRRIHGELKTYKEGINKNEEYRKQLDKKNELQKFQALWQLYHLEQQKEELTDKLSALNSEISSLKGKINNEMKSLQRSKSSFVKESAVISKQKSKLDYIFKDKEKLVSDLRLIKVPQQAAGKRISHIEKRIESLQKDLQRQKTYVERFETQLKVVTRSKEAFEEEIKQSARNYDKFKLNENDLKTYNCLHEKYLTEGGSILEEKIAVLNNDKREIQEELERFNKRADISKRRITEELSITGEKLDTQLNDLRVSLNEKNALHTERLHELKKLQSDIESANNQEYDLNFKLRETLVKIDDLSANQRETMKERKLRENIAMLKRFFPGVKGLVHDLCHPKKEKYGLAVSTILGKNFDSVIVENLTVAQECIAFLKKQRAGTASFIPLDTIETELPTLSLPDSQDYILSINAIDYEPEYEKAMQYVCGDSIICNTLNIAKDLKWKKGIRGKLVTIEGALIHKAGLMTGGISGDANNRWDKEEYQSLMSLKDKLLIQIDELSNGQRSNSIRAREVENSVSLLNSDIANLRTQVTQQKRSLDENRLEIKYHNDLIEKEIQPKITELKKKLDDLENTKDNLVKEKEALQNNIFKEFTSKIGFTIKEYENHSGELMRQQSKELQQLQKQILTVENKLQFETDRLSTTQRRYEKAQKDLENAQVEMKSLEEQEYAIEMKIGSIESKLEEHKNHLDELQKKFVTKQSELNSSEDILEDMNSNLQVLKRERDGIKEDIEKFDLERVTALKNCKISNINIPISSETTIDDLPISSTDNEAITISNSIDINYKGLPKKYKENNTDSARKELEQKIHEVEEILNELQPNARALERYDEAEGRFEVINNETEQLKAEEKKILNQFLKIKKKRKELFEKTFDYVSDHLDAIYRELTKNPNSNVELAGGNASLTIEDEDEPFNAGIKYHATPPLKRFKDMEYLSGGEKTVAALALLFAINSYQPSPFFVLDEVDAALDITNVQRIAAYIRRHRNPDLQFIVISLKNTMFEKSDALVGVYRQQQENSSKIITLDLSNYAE
Chain of Smc1-Smc3-Scc1 trimer (S. cerevisiae cohesin) (P47037 whole entry, chain 2 of 3): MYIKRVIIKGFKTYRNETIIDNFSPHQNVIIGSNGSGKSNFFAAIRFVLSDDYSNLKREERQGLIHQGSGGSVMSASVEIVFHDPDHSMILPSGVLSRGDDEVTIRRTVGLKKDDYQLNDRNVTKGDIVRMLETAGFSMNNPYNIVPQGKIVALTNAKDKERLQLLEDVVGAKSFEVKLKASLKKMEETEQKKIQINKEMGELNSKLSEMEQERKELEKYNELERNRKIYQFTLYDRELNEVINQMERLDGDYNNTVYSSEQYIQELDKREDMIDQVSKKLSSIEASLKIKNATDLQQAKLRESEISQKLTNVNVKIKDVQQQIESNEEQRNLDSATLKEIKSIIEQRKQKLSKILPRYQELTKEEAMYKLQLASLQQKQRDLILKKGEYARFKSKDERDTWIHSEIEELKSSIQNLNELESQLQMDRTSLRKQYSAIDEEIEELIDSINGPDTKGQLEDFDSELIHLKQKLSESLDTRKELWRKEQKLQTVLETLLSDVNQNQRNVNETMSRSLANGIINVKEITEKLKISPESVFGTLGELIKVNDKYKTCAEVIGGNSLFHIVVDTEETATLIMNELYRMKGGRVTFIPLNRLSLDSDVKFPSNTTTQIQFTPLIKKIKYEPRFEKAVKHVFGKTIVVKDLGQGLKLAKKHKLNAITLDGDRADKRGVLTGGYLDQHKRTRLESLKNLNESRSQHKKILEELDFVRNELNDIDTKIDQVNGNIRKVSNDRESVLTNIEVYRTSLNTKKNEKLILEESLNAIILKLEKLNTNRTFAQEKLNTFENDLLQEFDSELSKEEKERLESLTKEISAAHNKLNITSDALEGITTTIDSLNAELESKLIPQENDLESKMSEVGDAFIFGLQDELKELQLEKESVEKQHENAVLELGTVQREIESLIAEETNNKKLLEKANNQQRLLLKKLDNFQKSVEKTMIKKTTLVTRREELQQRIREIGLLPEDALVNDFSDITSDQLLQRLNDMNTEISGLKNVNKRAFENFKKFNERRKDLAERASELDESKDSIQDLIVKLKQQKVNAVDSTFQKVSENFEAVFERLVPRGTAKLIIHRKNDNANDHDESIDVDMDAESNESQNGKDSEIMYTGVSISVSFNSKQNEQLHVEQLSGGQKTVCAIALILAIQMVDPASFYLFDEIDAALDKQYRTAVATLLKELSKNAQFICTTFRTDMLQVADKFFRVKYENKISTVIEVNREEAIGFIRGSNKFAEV
Chain of Smc1-Smc3-Scc1 trimer (S. cerevisiae cohesin) (Q12158 whole entry, chain 3 of 3): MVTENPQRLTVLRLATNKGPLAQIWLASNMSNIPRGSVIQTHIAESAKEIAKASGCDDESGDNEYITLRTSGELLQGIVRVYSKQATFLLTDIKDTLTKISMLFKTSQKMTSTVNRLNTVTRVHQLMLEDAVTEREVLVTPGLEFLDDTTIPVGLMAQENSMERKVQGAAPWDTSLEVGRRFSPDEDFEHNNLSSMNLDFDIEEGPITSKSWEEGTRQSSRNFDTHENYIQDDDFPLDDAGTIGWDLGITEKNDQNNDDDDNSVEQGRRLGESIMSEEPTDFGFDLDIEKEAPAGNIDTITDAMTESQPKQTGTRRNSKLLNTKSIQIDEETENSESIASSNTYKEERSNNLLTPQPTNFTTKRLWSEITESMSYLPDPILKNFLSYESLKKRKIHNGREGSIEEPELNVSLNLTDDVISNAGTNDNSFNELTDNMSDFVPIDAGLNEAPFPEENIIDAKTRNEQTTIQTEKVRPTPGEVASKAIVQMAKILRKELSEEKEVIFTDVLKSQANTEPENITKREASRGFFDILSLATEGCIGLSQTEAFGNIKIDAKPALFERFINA

Binder	binding result [1]	binding result [2]	other results
B1	binds	–	–
B2	binds	–	–
B3	–	binds	–
B4	–	binds	–
B5	binds	–	binding result [3]: binds
B6	–	–	binding result [4]: binds

— doi:10.1101/464701 (bioRxiv, 2018)
